Data from patent publication US6670161B1, “Compositions and methods for template-dependent enzymatic synthesis of nucleic acid” (The Board of Trustees of the Leland Stanford Jr. University, priority 1991, dated 2003).
Where two headings read alike, the source gives them in different places.

What was measured:
[1] = system: lacZ α-complementing gene in M13mp2 DNA; assay: DNA synthetic fidelity, minus-one frame-shift reversion assay; format: biochemical
Description: (§1) DNA Synthetic Fidelity. The fidelity of the single catalytic subunit and the four subunit polymerase α/primase was measured and compared. Three methods were used to measure a single round of gap filling synthesis within the lacZ α-complementing gene in M13mp2 DNA. See T. A. Kunkel et al. Mol. Cell. Biol. 9:4447 (1989). In all three assays, a gapped, double-stranded M13mp2 DNA is constructed which contains a single-stranded gap as the mutation target. The three assays are: (A) forward mutation assay, (B) opal codon reversion assay, and (C) assay for −1 base frame-shift.
(§2) The DNA synthetic mutational frequency and the error rate of the two forms of DNA polymerase α measured by these three methods are summarized in Table III. […] The DNA synthetic fidelity values obtained are also in agreement with the values previously determined for the four subunit polymerase α.

[2] = system: lacZ α-complementing gene in M13mp2 DNA; assay: DNA synthetic fidelity, forward mutation assay; format: biochemical; details: light blue and colorless plaques
Description: as §1, §2

oligo(dT)12: poly(dA)290 = assay: Km for primer terminus; format: biochemical; details: oligo(dT)12: poly(dA)290, 2 mM MgCl2, 50 μM dTTP
Description: (§3) The standard assay for DNA polymerase α with gapped DNA was performed according to P. A. Fisher and D. Korn, J. Biol. Chem 252:6528 1977). Reactions were performed using optimally gapped salmon sperm DNA in 20 mM Tris.HCl, pH 8.0, 2 mM β-mercaptoethanol (“βME”), 200 μg/ml BSA, 10 mM MgCl2, 50 μM dNTP's with [α-^32P]dATP as the label. One unit of DNA polymerase is defined as the amount of polymerase that incorporates 1 nmole of labeled dNTP into acid-insoluble DNA at 37° C. in 60 min. […] All Kinetic parameters were calculated from Lineweaver-Burk plots by the method of least squares. Km was calculated of the basis of 3′-OH primer termini.

[3] = system: lacZ α-complementing gene in M13mp2 DNA; assay: DNA synthetic fidelity, base-substitution (opal codon) reversion assay; format: biochemical
Description: as §1, §2

[4] = Thermostability: preincubation at 37° C. before assaying polymerase activity; format: physicochemical
Description: Thermosensitivity. The thermostability of the two forms of polymerase α was also compared; this was done by preincubation at 37° C. for various times before assaying polymerase activity. […] (data not shown). These decreases in polymerase activity was not due to proteolysis of the polymerase protein.

[5] = system: optimally gapped salmon sperm DNA, dNTP's; assay: Kinetic parameters of DNA polymerase α on gapped DNA (Lineweaver-Burk); format: biochemical; details: for Km: gapped salmon sperm DNA
From the text: Characterization of Affinity. The four subunit-DNA polymerase α/primase complex was purified from human KB cells as described T. Wang et al., J. Biol. Chem. 259:1854 (1984) and used for comparison to the single polypeptide recombinant polymerase α for their respective affinities for dNTP, primer-terminus, and gapped DNA. Prior to the comparison, both the immunopurified recombinant single subunit-polymerase α and the four subunit-polymerase α/primase complex were stored in buffer containing 30% sucrose, 20% ethylene glycol, 50 mM Tris HCL, pH 8.6, 1 mM βME, 1 mM EDTA at −80° C. or stored on packed ice at 4° C.
as §3
The rate of catalysis of these two forms was also measured. The Kcat values determined for the two forms of polymerase α are of a similar order of magnitude.

[6] = system: matched 24 mer or mismatched 29 mer annealed to M13mp18 single stranded DNA; assay: Proofreading exonuclease assay on primed M13mp18; format: biochemical; details: up to 30 minutes at 37° C.
Description: Proofreading exonuclease activity of the recombinant single subunit poymerase α was assayed with a singly primed M13mp18 template (SEQ ID NO:5), primed either with a matched 24 mer (SEQ ID NO:4) (FIG. 8B) or a mismatched 29 mer (SEQ ID NO:2) (FIG. 8A), each ^32P-labeled at the 5′ end by T4 polynucleotide kinase. The mismatched 29 mer (SEQ ID NO:2) contains 9 mismatched T's on the 3′ terminus. Correct proofreading of this 29 mer (SEQ ID NO:2) annealed to M13mp18 (SEQ ID NO:3) would produce a 20 mer in the absence of deoxynucleotide triphosphates (dNTPs).
To perform the assay, two oligonucleotides, the universal primer, a 24 mer (matched primer) and RD29 mer (mismatched primer), were 5′-end labeled with ^32P-ATP and annealed to M13mp18 single stranded template. 0.1 pmole of this primed M13 was incubated in 20 mM Tris.HCl, pH 7.5, 10 mM MgCl2, 20 mM KCl and 2 mM dithiothreitol at 37° C. in the presence of polymerase in a final volume of 12 μl. Aliquots of 3 μl each were removed at 0, 2.5, 10 and 30 minutes into an equal volume of deionized formamide containing 1 mM EDTA, 0.1% xylene cyanol and 0.1% bromophenol blue and placed on ice. After heating at 95° C. for 5 minutes, one-half of the sample was loaded onto an 18% polyacrylamide, 7 M urea, Tris-borate-EDTA gel. […]

B1: Single subunit recombinant Pol α: recombinant human DNA polymerase α catalytic polypeptide (180 kDa) immunopurified from AcHDPα infected Sf9 cells (protein)
chain: MAPVHGDDSLSDSGSFVSSRARREKKSKKGRQEALERLKKAKAGEKYKYEVEDFTGVYEEVDEEQYSKLVQARQDDDWIVDDDGIGYVEDGREIFDDDLEDDALDADEKGKDGKARNKDKRNVKKLAVTKPNNIKSMFIACAGKKTADKAVDLSKDGLLGDILQDLNTETPQITPPPVMILKKKRSIGASPNPFSVHTATAVPSGKIASPVSRKEPPLTPVPLKRAEFAGDDVQVESTEEEQESGAMEFEDGDFDEPMEVEEVDLEPMAAKAWDKESEPAEEVKQEADSGKGTVSYLGSFLPDVSCWDIDQEGDSSFSVQEVQVDSSHLPLVKGADEEQVFHFYWLDAYEDQYNQPGVVFLFGKVWIESAETHVSCCVMVKNIERTLYFLPREMKIDLNTGKETGTPISMKDVYEEFDEKIATKYKIMKFKSKPVEKNYAFEIPDVPEKSEYLEVKYSAEMPQLPQDLKGETFSHVFGTNTSSLELFLMNRKIKGPCWLEVKSPQLLNQPVSWCKVEAMALKPDLVNVIKDVSPPPLVVMAFSMKTMQNAKNHQNEIIAMAALVHHSFALDKAAPKPPFQSHFCVVSKPKDCIFPYAFKEVIEKKNVKVEVAATERTLLGFFLAKVHKIDPDIIVGHNIYGFELEVLLQRINVCKAPHWSKIGRLKRSNMPKLGGRSGFGERNATCGRMICDVEISAKELIRCKSYHLSELVQQILKTERVVIPMENIQNMYSESSQLLYLLEHTWKDAKFILQIMCELNVLPLALQITNIAGNIMSRTLMGGRSERNEFLLLHAFYENNYIVPDKQIFRKPQQKLGDEDEEIDGDTNKYKKGRKKAAYAGGLVLDPKVGFYDKFILLLDFNSLYPSIIQEFNICFTTVQRVASEAQKVTEDGEQEQIPELPDPSLEMGILPREIRKLVERRKQVKQLMKQQDLNPDLILQYDIRQKALKLTANSMYGCLGFSYSRFYAKPLAALVTYKGREILMHTKEMVQKMNLEVIYGDTDSIMINTNSTNLEEVFKLGNKVKSEVNKLYKLLEIDIDGVFKSLLLLKKKKYAALVVEPTSDGNYVTKQELKGLDIVRRDWCDLAKDTGNFVIGQILSDQSRDTIVENIQKRLIEIGENVLNGSVPVSQFEINKALTKDPQDYPDKKSLPHVHVALWINSQGGRKVKAGDTVSYVICQDGSNLTASQRAYAPEQLQKQDNLTIDTQYYLAQQIHPVVARICEPIDGIDAVLIATWLGLDPTQFRVHHYHKDEENDALLGGPAQLTDEEKYRDCERFKCPCPTCGTENIYDNVFDGSGTDMEPSLYRCSNIDCKASPLTFTVQLSNKLIMDIRRFIKKYYDGWLICEEPTCRNRTRHLPLQFSRTGPLCPACMKATLQPEYSDKSLYTQLCFYRYIFDAECALEKLTTDHEKDKLKKQFFTPKVLQDYRKLKNTAEQFLSRSGYSEVNLSKLFAGCAVKS
- Error rate [1]: 1/1800
- Mutant frequency ([1]; blue plaques): 170 ×10^−5
- Mutant frequency [2]: 300 ×10^−4
- Km (oligo(dT)12: poly(dA)290): 0.4 µM
- Error rate [3]: 1/4900
- Mutant frequency ([3]; blue plaques): 370 ×10^−6
- Thermostability, % activity after 30 min at 37° C. [4]: 68%
- Kcat [5]: 1.6 s⁻¹
- Km ([5]; 10 mM MgCl2, pH 8.0, read-out: Km (dNTP)): 1.2 µM
- Km ([5]; read-out: Km (DNA in nucleotide)): 190 µM
- 3′-5′ exonuclease activity on matched and mismatched primer-template [6]: no apparent 3′-5′ exonuclease was detected
